For 1 substance, percent more AP-1 isolated than from wt extracts results are on record in PMC4944158.

In the assay the target is GST-RabGAP5 C-terminal aa578-760. The experiment in a line: pull-down; GST fusion on Glutathione Sepharose beads incubated with supernatants of homogenised synaptosomes of wt and σ1B −/− mouse brains, 4 hours at RT, PBS; Western blot.

With “AP-1/σ1A complexes of σ1B −/− mice (from UniProt P22892 1-822; O35643 1-943; P35585 1-423; P61967 1-158)”, the percent more AP-1 isolated than from wt extracts turned out to be 30%.
